Experimental findings from patent US9493537 (STC UNM, dated 2016) are described below.

Positions of bridges follow the written chain, without caps; N, C: chain ends. Non-standard residues stand in square brackets, D forms with d. *: point of attachment. DOTA = O=C(O)CN1CCN(CC(=O)O)CCN(CC(=O)*)CCN(CC(=O)O)CC1; Nle = CCCC[C@H](N)C(=O)O

The target in assay [1] is T1, melanocortin-1 (MC1) receptor on B16/F1 murine melanoma cells (mouse (B16/F1 murine melanoma cells), UniProt Q01727 1-315).
T1 construct: whole, on cells; Endogenous receptor of the B16/F1 cells, in culture and as flank tumours in C57 mice; also called MCI receptor; MSH receptor
Description: competitive binding on B16/F1 melanoma cells against 125I-Tyr2-NDP-MSH; row head 'MC1R binding affinity (nM)'. The method, then: (§1) The medium was aspirated after the incubation. The cells were rinsed twice with 0.5 mL of ice-cold pH 7.4, 0.2% BSA/0.01 M phosphate buffered saline (PBS) and lysed in 0.5 mL of 1 N NaOH for 5 minutes. The activities associated with cells were measured in a Wallac 1480 automated gamma counter (PerkinElmer, Waltham, Mass.). The $IC50$ value of each peptide was calculated using Prism software (GraphPad Software, La Jolla, Calif.).

The target in assay [2] is T1, melanocortin-1 (MC1) receptor on B16/F1 …. The experiment in a line: competitive binding on B16/F1 melanoma cells against 125I-Tyr2-NDP-MSH. On the procedure:
as §1

T1 sequence (Q01727 whole entry): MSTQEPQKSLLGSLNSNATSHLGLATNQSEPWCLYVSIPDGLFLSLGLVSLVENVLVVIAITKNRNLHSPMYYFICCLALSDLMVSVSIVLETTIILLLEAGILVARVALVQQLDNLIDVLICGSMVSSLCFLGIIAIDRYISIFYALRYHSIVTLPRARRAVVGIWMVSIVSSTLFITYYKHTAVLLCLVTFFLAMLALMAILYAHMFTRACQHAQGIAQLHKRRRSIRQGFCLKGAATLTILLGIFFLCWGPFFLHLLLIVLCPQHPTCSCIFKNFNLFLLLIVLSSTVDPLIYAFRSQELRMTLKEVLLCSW

B1: DOTA-GGNle-CycMSHhex (peptide)
peptide: {DOTA}-GG[Nle]DH[dF]RWK-NH2
modifications: lactam 4-9
SMILES: CCCC[C@H](NC(=O)CNC(=O)CNC(=O)CN1CCN(CC(=O)O)CCN(CC(=O)O)CCN(CC(=O)O)CC1)C(=O)N[C@H]1CC(=O)NCCCC[C@@H](C(N)=O)NC(=O)[C@H](Cc2c[nH]c3ccccc23)NC(=O)[C@H](CCCNC(=N)N)NC(=O)[C@@H](Cc2ccccc2)NC(=O)[C@H](Cc2c[nH]cn2)NC1=O
notes: Synthetic; also called DOTA-GlyGlyNle-CycMSHhex
Broadly, the IC50 is the concentration that inhibits the measured activity by half. A lower IC50 goes with inhibition by little substance. In assay [1], B1 registered a half-maximal inhibitory concentration (IC50) of 2.1 nM.

B2: DOTA-GENle-CycMSHhex (peptide)
peptide: {DOTA}-GE[Nle]DH[dF]RWK-NH2
modifications: lactam 4-9
SMILES: CCCC[C@H](NC(=O)[C@H](CCC(=O)O)NC(=O)CNC(=O)CN1CCN(CC(=O)O)CCN(CC(=O)O)CCN(CC(=O)O)CC1)C(=O)N[C@H]1CC(=O)NCCCC[C@@H](C(N)=O)NC(=O)[C@H](Cc2c[nH]c3ccccc23)NC(=O)[C@H](CCCNC(=N)N)NC(=O)[C@@H](Cc2ccccc2)NC(=O)[C@H](Cc2c[nH]cn2)NC1=O
notes: Synthetic; also called DOTA-GlyGluNle-CycMSHhex
In assay [1], B2 had a half-inhibitory concentration (IC50) of 11.5 nM.

B3: DOTA-NleGE-CycMSHhex (peptide)
peptide: {DOTA}-[Nle]GEDH[dF]RWK-NH2
modifications: lactam 4-9
SMILES: CCCC[C@H](NC(=O)CN1CCN(CC(=O)O)CCN(CC(=O)O)CCN(CC(=O)O)CC1)C(=O)NCC(=O)N[C@@H](CCC(=O)O)C(=O)N[C@H]1CC(=O)NCCCC[C@@H](C(N)=O)NC(=O)[C@H](Cc2c[nH]c3ccccc23)NC(=O)[C@H](CCCNC(=N)N)NC(=O)[C@@H](Cc2ccccc2)NC(=O)[C@H](Cc2c[nH]cn2)NC1=O
notes: Synthetic; also called DOTA-NleGlyGlu-CycMSHhex
For B3, the “fold lower receptor binding affinity than DOTA-GGNle-CycMSHhex and DOTA-GENle-CycMSHhex” value in assay [2] is at least 78 fold. This molecule showed a half-inhibitory concentration (IC50) in assay [1] of 873 nM.
